Data published in US20240425885.

Columns and labels:
Assay in all cases: cleavage_in_vitro
[1] = system: T1, OMNI-123 (metagenomic, unknown); details: TXTL; PAM NNNSGYAA
T1 sequence: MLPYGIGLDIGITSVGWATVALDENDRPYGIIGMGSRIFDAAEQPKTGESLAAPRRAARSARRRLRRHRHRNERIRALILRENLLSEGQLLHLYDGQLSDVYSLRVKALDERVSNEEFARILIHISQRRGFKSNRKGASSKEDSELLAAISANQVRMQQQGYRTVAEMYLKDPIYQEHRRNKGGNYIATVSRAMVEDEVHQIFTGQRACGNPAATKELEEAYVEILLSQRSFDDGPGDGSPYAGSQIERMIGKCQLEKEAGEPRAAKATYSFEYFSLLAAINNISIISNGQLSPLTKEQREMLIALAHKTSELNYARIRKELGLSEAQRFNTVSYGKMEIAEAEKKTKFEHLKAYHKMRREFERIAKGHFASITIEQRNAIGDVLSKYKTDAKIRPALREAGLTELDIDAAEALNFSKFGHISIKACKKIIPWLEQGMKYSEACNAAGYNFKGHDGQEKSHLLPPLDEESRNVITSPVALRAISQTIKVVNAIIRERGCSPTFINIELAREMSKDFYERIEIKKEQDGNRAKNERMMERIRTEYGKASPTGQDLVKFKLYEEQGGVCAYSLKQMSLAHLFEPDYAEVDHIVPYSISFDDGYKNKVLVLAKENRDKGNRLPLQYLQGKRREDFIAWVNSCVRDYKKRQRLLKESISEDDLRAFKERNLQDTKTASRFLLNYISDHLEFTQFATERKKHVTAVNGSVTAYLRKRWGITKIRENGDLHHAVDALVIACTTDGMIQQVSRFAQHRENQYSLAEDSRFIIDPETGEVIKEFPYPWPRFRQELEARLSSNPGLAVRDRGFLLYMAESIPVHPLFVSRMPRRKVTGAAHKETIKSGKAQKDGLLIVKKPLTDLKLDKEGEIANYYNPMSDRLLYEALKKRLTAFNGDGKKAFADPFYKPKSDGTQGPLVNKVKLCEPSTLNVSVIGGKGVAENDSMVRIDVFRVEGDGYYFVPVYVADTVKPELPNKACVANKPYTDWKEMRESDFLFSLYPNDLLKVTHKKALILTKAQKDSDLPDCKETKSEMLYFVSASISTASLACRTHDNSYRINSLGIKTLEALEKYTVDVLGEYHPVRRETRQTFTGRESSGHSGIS

[2] = system: T2, OMNI-125 (metagenomic, unknown); details: TXTL; PAM NARNCCYN
T2 sequence: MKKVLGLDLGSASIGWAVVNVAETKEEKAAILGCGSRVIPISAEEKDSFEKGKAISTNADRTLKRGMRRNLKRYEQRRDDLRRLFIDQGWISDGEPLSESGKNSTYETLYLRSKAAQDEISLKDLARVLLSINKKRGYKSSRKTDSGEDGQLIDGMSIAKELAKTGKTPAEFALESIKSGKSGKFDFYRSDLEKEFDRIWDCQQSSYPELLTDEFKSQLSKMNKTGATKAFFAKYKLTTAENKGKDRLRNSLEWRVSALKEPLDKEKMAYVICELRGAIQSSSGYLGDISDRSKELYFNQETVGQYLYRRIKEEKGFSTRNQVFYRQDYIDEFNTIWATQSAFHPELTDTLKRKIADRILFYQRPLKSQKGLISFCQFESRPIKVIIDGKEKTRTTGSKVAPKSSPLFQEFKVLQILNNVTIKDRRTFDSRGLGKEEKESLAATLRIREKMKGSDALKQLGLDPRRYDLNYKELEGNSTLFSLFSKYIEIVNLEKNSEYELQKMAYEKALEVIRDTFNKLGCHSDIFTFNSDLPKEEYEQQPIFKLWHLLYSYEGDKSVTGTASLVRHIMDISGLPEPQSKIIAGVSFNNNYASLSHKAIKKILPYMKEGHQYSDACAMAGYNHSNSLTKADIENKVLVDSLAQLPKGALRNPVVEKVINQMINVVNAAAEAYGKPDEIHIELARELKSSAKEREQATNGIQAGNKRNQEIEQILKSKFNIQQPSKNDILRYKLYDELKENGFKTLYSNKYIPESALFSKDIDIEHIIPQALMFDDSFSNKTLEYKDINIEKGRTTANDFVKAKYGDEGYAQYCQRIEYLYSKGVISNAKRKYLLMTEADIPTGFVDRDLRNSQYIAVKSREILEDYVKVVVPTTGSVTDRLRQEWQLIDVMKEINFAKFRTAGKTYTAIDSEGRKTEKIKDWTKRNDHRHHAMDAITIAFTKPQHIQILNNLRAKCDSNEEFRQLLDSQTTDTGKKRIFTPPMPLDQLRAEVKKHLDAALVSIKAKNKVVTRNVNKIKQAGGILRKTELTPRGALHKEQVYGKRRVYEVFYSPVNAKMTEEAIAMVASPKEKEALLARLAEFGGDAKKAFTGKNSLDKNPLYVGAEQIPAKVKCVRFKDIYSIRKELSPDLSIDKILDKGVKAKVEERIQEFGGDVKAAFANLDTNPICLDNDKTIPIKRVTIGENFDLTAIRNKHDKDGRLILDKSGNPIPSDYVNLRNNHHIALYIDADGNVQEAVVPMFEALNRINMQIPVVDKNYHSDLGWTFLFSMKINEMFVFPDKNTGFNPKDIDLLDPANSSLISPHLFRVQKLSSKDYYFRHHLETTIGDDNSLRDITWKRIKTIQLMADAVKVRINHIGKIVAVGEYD

[3] = system: OMNI-121 (metagenomic, unknown); details: TXTL; PAM NNAAAYNN
[4] = system: T3, OMNI-122 (metagenomic, unknown); details: TXTL; PAM NRYTTTYN
T3 sequence: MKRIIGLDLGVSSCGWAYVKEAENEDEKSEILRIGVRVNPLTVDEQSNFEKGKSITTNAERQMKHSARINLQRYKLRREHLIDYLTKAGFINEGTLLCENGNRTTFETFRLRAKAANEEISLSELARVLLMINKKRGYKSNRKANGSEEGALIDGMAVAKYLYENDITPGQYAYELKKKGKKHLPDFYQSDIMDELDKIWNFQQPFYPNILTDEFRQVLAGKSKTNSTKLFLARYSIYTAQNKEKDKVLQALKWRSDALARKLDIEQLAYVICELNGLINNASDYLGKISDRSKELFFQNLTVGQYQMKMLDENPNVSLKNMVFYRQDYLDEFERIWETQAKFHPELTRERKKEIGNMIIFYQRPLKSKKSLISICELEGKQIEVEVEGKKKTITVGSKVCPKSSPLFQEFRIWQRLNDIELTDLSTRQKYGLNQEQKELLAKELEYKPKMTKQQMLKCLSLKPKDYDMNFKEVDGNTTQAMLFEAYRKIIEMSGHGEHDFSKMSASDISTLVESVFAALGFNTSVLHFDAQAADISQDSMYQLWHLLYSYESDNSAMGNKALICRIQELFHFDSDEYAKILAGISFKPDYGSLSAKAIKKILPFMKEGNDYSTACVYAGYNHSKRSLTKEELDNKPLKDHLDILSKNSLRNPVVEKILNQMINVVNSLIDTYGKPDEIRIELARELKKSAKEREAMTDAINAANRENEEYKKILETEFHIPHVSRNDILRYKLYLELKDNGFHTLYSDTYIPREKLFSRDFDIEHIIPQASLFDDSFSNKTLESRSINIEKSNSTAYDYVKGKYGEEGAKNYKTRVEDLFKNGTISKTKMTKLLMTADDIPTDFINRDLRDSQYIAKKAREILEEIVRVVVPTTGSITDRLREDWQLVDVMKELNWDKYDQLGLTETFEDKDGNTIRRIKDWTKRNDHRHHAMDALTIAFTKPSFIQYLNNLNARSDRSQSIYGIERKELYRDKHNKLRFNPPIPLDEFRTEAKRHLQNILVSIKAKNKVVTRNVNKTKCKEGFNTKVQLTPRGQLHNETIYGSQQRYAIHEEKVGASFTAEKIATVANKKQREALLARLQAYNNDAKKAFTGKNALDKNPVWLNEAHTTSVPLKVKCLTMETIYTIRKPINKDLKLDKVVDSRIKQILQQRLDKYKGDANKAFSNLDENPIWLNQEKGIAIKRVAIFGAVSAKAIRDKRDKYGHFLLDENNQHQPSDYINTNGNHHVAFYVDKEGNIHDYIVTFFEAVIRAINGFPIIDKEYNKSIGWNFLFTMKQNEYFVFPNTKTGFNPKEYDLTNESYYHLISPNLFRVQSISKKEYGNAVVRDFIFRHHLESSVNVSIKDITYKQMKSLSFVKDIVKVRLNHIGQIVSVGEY

[5] = system: T4, OMNI-126 (metagenomic, unknown); details: TXTL; PAM NNNNAARN
T4 sequence: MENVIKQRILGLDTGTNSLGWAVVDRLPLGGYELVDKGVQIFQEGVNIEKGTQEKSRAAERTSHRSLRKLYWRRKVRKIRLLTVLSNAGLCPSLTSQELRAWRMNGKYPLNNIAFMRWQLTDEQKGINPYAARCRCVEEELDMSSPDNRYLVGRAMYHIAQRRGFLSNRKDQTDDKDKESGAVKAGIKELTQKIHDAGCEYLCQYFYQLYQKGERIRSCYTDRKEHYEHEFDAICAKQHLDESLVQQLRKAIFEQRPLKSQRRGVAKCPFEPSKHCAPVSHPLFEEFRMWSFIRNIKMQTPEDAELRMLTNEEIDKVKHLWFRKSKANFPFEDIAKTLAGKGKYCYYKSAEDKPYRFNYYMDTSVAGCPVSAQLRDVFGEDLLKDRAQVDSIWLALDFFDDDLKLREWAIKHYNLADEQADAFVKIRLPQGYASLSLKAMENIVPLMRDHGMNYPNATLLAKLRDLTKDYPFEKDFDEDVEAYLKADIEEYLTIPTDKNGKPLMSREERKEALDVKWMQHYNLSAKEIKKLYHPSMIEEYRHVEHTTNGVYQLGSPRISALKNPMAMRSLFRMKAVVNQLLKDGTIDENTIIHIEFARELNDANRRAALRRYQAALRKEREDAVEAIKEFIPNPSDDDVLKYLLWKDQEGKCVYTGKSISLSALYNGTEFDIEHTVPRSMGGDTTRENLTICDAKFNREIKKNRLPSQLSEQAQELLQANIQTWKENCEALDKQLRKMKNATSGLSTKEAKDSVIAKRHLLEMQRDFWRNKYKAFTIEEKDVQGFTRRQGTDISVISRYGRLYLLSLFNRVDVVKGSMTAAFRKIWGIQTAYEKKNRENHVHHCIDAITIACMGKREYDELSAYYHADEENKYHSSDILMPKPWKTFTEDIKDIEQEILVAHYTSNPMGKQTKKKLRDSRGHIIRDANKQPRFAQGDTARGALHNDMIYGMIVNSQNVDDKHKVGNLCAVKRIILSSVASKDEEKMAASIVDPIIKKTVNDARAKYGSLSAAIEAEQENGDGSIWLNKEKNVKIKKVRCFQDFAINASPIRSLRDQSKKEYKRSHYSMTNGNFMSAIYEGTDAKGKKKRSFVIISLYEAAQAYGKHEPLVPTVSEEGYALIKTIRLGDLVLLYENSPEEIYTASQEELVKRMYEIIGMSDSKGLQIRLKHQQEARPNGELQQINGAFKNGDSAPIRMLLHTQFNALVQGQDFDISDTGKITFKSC

Chain of OMNI-121 (metagenomic, unknown) (chain, as listed by the source): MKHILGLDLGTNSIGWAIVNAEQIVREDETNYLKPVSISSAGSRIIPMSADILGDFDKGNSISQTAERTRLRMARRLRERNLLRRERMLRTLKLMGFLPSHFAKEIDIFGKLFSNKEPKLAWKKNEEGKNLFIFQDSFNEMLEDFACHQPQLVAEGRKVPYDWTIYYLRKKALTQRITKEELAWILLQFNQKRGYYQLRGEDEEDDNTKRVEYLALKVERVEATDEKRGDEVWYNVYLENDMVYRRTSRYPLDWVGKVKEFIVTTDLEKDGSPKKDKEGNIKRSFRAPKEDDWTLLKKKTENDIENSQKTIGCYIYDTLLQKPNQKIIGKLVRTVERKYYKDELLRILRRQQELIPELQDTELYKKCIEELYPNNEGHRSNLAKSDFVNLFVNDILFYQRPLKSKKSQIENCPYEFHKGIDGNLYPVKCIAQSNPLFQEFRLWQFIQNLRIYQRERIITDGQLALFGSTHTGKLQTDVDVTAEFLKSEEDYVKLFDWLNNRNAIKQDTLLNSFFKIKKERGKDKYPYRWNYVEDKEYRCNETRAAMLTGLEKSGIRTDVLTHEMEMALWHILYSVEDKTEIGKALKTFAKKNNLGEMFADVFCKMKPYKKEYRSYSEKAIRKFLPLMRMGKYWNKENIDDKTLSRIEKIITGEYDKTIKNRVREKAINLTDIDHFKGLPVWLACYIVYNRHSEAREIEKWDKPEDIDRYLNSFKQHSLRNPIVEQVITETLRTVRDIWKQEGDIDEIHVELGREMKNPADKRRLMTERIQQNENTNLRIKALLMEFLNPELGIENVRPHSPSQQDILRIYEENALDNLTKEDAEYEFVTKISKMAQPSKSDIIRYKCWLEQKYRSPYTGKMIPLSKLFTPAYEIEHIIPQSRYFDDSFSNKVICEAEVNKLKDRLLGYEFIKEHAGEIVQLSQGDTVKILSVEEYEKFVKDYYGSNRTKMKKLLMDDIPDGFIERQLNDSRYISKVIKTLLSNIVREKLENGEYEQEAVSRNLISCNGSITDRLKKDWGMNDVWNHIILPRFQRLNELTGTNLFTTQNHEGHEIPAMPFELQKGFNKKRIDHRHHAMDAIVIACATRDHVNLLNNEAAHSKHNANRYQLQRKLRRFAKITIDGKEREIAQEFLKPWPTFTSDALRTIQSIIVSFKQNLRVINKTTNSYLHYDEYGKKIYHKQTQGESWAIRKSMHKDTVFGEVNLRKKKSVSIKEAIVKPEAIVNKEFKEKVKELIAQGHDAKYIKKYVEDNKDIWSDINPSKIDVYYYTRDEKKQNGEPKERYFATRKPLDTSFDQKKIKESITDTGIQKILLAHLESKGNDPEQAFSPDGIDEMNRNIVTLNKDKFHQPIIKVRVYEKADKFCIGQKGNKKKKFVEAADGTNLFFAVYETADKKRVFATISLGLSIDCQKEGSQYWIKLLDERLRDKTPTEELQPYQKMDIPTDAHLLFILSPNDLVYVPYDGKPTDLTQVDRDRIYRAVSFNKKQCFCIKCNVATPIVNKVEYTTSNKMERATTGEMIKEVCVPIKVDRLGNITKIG

Sequence: GGAAGAGCAGAGCCUUGGUCUCGUUAUAGUUCCCUGAUAGUGAAAACUAUGAGGUUGCUAUAAUAAGGUAGUAAACCGCAGAGCUCUAACGCCUCACAUUUGUGGGGCGUUAUCUCUUUUUUU / GGAAGAGCAGAGCCTTGGTCTCNNNNNNNN / NNNNNNNNGAGACCAAGGCTCTGCTCTTCC [T2 sgRNA 26 V1 ; T2 protospacer + 8N PAM library (pbPOS T2)]
- activity (1-depletion score) [1]: 0.95

Sequence: GGAAGAGCAGAGCCUUGGUCUCGUUGUGAAUGGCUUUCGAAAUUGAAGCCAUUCACAAUAAGGAUUAUUCCGUUGUGAAAACAUUAAGAGCGGGUCGUGAGACUCGCUCUUCUGUGUUUAUUUUUU / GGAAGAGCAGAGCCTTGGTCTCNNNNNNNN / NNNNNNNNGAGACCAAGGCTCTGCTCTTCC [T2 sgRNA 27 V1 ; T2 protospacer + 8N PAM library (pbPOS T2)]
- activity (1-depletion score) [2]: 0.95

Sequence: GGAAGAGCAGAGCCUUGGUCUCGUUGUGAAUUGCUUGAAAUUCUUGAAAGAAUUUCAGCAAUUCACAAUAAGGAUUAUUCCGUUGUGAAAACAUUCAGGUUCCUGCCCUCGUCCUUUAACGGGGGCUUUUUU / GGAAGAGCAGAGCCTTGGTCTCNNNNNNNN / NNNNNNNNGAGACCAAGGCTCTGCTCTTCC [T2 sgRNA 24 V1 ; T2 protospacer + 8N PAM library (pbPOS T2)]
- activity (1-depletion score) [3]: 0.91

Sequence: GGAAGAGCAGAGCCUUGGUCUCGUUGUGAAUUGCUUUCGAAAGAAGCAAUUCACAAUAAGGAUUAUUCCGUUGUGAAAACAUUUAAGAGAGUCCUUCGUCCUUCGGAGGAUUCUUUUUU / GGAAGAGCAGAGCCTTGGTCTCNNNNNNNN / NNNNNNNNGAGACCAAGGCTCTGCTCTTCC [T2 sgRNA 25 V1 ; T2 protospacer + 8N PAM library (pbPOS T2)]
- activity (1-depletion score) [4]: 0.84

Sequence: GGAAGAGCAGAGCCUUGGUCUCGUUGUGGCUUGUUGAAGAAGAAAUUCUUCAACUUGUCACAAUAAGGCCCUUAAGGCCGAAGGUUGAAAAACCUAUGGCUCUACUUCGGUGGAGCCUUUUUU / GGAAGAGCAGAGCCTTGGTCTCNNNNNNNN / NNNNNNNNGAGACCAAGGCTCTGCTCTTCC [T2 sgRNA 28 V1 ; T2 protospacer + 8N PAM library (pbPOS T2)]
- activity (1-depletion score) [5]: 0.64
